{"source": "patent US20260193377A1", "key": {"[1]": {"target": "GCC expressed on T84 cells (UniProt P25092)", "sequence (P25092 24-1073 limits assumed)": "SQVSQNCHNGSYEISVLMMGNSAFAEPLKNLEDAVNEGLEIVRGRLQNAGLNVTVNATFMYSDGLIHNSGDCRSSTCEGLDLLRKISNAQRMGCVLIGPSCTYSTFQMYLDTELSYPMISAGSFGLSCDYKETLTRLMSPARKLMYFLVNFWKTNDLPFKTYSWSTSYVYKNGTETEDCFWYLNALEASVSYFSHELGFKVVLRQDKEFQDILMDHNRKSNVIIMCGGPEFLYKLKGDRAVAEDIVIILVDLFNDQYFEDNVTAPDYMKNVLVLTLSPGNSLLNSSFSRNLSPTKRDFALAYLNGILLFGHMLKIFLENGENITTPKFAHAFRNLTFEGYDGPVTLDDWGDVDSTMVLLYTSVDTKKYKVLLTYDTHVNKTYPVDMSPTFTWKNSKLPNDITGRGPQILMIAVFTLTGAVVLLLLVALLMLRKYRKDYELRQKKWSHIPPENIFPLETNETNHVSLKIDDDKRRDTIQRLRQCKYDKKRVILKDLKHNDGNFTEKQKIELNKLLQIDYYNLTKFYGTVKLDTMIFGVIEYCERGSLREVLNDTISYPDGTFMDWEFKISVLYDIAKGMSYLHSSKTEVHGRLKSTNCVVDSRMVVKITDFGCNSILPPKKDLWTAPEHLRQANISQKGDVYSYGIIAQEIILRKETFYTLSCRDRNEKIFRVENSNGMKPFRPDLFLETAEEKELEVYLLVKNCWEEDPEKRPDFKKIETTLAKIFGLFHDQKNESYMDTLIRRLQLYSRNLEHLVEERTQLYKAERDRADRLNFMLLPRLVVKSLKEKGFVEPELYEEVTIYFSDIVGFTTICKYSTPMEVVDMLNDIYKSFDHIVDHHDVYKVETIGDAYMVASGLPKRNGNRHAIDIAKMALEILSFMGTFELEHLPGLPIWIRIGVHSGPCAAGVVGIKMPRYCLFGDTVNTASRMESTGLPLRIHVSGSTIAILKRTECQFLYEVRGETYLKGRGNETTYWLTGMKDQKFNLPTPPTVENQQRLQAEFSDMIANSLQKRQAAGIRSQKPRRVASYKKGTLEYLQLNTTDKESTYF", "assay": "flow cytometry on T84 cells expressing GCC, 300 nm [sic], PE-anti human Fc secondary; Blank 15.0"}, "[2]": {"target": "GCC expressed on T84 cells (UniProt P25092)", "assay": "flow cytometry on T84 cells expressing GCC, 300 nm [sic], PE-anti human Fc secondary; Blank 30.7"}}, "data": [{"substance": "Human IgG1 isotype (antibody)", "values": [{"measurement": "Geometric mean MFI", "setting": "[1]", "value": 17.7}, {"measurement": "Geometric mean MFI", "setting": "[2]", "value": 30.7}]}]}
